This note sets out measurements from US20200087347 (published 2020).

[ ]: non-standard residue; d: D form. Some results are limits rather than exact numbers.

One may read the IC50 as the concentration at which inhibition is half-maximal.

What all share (test): competition
One test deals with T1, integrin αvβ5 (human, UniProt P06756).
T1 chain 1: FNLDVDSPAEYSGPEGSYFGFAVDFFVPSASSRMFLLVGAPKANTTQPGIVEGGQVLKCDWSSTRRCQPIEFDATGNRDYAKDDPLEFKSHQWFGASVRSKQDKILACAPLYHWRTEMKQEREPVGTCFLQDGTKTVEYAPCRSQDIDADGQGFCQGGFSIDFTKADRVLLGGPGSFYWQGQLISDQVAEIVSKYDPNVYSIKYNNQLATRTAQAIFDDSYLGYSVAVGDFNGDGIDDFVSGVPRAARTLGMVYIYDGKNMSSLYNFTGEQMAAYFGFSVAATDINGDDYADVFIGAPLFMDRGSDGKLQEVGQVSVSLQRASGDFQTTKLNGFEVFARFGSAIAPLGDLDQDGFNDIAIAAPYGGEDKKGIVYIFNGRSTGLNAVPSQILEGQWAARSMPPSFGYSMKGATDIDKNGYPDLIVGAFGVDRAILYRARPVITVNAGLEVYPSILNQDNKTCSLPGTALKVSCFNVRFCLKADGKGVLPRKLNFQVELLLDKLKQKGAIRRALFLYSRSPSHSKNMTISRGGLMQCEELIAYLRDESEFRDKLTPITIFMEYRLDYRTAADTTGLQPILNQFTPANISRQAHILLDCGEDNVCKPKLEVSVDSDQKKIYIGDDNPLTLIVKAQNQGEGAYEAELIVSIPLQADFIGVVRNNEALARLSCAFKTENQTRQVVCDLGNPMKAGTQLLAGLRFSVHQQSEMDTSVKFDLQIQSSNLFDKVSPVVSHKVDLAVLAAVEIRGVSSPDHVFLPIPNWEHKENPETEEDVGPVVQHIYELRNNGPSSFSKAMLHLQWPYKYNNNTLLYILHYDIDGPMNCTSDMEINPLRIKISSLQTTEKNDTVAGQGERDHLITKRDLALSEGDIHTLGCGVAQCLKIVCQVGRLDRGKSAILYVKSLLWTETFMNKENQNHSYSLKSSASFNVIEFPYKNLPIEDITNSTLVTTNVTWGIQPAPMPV
T1 chain 2: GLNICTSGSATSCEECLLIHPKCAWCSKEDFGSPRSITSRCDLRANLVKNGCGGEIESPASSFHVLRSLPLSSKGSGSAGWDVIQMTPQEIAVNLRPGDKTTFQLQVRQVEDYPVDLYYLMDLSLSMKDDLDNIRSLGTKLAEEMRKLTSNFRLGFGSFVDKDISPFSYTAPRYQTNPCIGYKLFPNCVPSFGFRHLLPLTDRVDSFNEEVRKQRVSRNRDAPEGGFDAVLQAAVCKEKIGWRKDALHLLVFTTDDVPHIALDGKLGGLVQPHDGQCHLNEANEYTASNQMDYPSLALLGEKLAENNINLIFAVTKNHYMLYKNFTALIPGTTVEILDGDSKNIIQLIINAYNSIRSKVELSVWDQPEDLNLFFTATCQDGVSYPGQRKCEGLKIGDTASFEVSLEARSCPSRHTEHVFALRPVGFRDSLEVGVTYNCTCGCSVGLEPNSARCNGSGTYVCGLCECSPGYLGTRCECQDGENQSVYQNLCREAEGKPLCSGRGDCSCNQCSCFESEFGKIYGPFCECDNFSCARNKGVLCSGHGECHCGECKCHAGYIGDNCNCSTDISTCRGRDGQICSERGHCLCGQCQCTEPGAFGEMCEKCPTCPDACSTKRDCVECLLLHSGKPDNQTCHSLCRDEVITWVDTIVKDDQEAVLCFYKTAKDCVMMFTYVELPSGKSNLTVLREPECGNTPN

The target in another test is integrin α5β1 (human, UniProt P08648).
Sequence of integrin α5β1 (P08648 42-1049, chain 1 of 2): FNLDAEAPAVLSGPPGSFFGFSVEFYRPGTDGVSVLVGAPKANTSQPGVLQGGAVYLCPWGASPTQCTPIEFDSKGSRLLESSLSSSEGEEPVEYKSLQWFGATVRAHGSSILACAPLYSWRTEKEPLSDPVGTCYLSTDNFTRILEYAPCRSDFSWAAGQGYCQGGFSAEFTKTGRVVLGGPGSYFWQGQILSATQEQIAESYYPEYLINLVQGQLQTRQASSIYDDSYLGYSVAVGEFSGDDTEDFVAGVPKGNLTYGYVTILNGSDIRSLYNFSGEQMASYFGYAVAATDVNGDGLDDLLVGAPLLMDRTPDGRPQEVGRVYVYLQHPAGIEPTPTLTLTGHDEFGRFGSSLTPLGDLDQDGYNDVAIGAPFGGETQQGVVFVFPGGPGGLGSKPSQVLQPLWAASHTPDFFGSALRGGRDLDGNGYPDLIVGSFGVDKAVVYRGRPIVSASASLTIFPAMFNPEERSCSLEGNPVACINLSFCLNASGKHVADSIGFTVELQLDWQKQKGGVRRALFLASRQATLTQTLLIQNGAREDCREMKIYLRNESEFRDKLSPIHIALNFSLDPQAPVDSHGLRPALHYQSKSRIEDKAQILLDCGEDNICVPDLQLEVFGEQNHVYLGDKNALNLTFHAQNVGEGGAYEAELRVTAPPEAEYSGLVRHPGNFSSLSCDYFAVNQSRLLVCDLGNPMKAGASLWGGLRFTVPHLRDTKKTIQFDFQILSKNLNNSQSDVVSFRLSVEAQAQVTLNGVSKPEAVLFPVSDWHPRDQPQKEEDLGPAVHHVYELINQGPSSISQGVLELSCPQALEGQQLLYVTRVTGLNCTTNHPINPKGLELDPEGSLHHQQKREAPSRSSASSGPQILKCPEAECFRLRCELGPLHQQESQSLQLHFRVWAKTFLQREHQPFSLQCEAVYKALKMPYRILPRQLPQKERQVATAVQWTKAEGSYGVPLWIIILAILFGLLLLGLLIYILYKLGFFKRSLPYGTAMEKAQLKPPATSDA
Sequence of integrin α5β1 (chain, as listed by the source, chain 2 of 2): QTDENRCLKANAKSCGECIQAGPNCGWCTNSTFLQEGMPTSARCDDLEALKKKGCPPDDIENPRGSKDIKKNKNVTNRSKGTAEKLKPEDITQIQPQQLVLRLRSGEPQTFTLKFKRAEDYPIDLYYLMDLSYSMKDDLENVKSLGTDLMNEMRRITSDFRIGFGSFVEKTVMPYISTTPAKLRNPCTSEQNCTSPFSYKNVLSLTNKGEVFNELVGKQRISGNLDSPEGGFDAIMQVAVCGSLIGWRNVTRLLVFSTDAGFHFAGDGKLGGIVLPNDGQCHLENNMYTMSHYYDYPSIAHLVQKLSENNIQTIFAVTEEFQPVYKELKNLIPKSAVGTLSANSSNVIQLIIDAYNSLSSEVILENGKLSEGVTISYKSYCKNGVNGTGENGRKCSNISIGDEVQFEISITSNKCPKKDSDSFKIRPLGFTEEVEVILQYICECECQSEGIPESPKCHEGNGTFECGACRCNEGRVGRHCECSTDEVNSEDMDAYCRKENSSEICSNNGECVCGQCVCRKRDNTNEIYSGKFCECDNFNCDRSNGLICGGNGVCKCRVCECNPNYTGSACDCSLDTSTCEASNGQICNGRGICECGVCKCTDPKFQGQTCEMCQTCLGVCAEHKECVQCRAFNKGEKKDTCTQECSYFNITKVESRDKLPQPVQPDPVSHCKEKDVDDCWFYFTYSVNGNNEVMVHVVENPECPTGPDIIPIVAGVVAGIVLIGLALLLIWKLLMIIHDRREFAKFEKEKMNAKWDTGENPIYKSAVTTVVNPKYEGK
Another test has as its target T2, integrin αvβ8 (human, UniProt P06756).
T2 chain 1: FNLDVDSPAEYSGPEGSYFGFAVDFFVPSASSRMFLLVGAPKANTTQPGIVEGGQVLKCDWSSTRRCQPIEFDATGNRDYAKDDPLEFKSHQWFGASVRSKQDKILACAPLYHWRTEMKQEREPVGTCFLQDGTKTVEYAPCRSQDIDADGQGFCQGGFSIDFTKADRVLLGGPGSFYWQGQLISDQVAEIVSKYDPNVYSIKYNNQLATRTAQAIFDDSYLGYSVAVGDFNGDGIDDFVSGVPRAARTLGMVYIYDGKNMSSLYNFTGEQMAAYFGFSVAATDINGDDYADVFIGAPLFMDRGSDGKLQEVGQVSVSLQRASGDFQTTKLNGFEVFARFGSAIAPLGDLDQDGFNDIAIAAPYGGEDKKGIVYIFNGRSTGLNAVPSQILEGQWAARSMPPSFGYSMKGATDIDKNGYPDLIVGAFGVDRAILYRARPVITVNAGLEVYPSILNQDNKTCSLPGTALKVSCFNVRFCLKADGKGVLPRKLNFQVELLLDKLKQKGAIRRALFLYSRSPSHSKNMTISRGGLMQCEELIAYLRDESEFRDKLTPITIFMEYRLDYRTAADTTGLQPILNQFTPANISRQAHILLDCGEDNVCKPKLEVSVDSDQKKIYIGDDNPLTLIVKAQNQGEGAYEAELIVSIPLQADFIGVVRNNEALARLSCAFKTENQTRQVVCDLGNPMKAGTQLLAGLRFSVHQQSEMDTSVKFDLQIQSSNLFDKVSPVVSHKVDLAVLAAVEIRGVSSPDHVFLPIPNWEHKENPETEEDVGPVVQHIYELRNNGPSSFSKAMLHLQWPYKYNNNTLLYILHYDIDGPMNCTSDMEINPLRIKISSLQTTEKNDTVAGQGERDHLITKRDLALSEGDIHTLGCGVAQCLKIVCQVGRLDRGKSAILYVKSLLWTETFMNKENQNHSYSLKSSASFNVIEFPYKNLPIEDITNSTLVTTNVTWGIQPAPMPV
T2 chain 2: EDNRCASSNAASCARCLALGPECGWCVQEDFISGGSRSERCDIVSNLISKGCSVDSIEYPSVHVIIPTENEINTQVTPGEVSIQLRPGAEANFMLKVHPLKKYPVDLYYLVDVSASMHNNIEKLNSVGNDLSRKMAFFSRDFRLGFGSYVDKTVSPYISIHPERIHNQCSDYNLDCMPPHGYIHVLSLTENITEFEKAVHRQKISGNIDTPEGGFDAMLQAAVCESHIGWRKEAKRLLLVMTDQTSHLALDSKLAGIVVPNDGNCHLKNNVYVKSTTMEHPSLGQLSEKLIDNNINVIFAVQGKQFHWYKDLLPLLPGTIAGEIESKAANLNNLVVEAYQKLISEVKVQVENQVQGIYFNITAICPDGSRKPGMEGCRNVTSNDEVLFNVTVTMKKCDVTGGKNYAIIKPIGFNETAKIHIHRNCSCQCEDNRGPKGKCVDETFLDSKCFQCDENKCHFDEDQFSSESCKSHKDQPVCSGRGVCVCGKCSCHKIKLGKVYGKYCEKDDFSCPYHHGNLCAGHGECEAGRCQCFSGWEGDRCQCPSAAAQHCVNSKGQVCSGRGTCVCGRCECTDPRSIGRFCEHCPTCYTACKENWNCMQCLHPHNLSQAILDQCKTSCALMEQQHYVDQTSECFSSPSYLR

Another test concerns the target integrin αIIbβ3 (human, UniProt P08514).
In a further test the target is T3, integrin αvβ6 (human, UniProt P06756).
T3 chain 1: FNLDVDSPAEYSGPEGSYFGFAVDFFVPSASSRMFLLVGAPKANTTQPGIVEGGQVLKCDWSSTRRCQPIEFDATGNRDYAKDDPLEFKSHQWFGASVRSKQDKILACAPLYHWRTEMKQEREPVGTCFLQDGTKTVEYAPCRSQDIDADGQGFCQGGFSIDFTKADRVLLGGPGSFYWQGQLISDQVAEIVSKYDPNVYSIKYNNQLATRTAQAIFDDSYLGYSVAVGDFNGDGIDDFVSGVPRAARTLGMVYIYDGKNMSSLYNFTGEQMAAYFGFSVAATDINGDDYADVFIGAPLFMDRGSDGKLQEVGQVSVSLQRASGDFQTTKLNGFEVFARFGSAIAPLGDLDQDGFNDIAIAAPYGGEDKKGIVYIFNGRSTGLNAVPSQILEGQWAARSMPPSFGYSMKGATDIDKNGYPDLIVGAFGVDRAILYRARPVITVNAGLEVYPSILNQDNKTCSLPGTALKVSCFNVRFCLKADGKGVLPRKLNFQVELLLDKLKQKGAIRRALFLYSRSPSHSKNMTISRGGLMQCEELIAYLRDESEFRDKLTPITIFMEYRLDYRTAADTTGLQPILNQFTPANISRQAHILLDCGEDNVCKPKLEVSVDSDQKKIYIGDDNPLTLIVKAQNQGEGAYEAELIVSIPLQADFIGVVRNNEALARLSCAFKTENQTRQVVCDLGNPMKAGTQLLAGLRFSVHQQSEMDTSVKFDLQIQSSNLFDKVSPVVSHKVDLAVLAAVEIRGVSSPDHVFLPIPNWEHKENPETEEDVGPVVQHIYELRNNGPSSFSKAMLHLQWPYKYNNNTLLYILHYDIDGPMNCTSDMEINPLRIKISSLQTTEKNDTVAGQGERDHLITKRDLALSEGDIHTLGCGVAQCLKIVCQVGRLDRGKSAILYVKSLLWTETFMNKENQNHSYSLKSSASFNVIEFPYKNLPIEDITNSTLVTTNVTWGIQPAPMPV
T3 chain 2: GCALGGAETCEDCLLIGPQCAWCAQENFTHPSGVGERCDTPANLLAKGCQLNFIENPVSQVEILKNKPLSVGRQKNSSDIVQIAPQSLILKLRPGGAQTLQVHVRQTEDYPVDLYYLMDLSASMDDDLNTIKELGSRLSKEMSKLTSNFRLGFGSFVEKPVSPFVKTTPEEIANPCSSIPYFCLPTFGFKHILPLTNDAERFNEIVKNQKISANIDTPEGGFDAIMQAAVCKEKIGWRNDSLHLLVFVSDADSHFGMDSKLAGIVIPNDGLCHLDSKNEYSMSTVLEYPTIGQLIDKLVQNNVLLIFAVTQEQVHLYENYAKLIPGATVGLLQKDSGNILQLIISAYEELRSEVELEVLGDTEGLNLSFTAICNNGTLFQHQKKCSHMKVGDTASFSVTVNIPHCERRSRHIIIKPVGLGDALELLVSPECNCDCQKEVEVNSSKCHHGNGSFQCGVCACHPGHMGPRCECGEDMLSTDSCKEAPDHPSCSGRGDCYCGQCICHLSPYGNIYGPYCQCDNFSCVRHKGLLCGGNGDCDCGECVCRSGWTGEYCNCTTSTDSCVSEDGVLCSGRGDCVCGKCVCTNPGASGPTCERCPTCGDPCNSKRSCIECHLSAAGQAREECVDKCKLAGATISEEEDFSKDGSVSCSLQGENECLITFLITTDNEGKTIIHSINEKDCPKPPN

Another test concerns the target T4, integrin αvβ3 (human, UniProt P06756).
T4 chain 1: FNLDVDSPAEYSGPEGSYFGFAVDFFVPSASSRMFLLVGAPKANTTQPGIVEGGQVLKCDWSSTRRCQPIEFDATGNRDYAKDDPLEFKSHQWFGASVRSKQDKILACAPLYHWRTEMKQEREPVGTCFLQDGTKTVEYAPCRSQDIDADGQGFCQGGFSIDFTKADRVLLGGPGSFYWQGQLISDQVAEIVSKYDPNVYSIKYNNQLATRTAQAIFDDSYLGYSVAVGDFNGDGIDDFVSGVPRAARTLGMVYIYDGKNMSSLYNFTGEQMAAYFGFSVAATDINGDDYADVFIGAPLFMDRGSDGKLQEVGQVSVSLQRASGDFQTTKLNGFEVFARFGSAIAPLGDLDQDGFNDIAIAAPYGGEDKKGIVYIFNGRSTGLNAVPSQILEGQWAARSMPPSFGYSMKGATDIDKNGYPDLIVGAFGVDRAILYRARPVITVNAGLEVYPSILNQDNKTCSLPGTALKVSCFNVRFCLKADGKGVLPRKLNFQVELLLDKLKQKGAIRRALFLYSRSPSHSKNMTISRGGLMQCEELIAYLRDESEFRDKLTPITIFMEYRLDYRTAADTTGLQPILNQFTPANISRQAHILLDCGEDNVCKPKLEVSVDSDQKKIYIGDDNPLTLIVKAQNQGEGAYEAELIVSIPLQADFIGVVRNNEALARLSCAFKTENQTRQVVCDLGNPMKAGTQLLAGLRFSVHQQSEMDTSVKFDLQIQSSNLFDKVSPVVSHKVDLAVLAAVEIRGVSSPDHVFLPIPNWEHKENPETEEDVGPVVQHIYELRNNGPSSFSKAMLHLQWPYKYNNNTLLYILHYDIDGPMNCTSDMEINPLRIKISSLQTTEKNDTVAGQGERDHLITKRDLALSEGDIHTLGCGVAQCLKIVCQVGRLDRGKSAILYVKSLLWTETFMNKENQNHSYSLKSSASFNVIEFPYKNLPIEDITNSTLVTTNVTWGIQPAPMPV
T4 chain 2: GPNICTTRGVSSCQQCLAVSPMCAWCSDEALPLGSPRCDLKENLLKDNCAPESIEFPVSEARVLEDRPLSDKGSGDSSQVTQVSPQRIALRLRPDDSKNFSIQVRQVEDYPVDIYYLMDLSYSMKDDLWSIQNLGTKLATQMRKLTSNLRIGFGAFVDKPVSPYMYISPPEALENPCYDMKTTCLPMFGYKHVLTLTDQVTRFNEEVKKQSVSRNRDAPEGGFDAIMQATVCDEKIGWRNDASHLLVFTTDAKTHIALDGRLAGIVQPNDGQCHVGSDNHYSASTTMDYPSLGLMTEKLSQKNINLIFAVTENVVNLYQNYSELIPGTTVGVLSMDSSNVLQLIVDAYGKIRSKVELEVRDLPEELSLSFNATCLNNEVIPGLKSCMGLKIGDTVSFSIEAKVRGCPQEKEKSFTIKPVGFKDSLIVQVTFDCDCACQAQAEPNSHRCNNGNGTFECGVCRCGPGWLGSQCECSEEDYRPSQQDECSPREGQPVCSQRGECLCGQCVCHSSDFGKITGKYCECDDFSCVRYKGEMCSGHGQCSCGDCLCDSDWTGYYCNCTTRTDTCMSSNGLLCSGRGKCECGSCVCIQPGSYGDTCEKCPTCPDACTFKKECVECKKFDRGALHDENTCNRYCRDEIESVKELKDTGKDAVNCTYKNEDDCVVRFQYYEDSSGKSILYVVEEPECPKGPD

B1: Compound 2 (peptide)
chain: cyclo(RGDL[dP]PGL)
For the molecule B1, the half-inhibitory concentration (IC50) was > 1000 nM in the test with integrin αvβ5; > 1000 nM with integrin α5β1; 0.93 nM with integrin αvβ8; > 1000 nM with integrin αIIbβ3; 210 nM with integrin αvβ6; > 1000 nM in the test with integrin αvβ3.
